In IntAct's records for PubMed 18826409:

B1: Regulator of sigma D (Escherichia coli (strain K12)), P0AFX4 (parent)
chain: MLNQLDNLTERVRGSNKLVDRWLHVRKHLLVAYYNLVGIKPGKESYMRLNEKALDDFCQSLVDYLSAGHFSIYERILHKLEGNGQLARAAKIWPQLEANTQQIMDYYDSSLETAIDHDNYLEFQQVLSDIGEALEARFVLEDKLILLVLDAARVKHPA

Variants of: B1
Settings: with rpod_ecoli rpoD

Variant | effect of a mutation on the interaction
D142N | disrupting interaction strength
Y34F | increasing interaction strength

Variants of: B1
Settings: with rpod_ecoli rpoD
Remark: another data set of the same source

Variant | effect of a mutation on the interaction
G14E | increasing interaction strength
G14E;Y34F | increasing interaction strength
Y34F | decreasing interaction strength
